For test [1], the target named is T1, human CD3 on cells (human PBMC; Jurkat TCR/CD3 NFAT reporter cells) (human, UniProt P07766 23-207; P04234 22-171; P09693 23-182). Briefly: cell-based or functional assay.
Test [2] has as its target T1, human CD3 on cells (human PBMC; Jurkat …). As to the kind of experiment: cell-based or functional assay. This is another data set of the same source.
A further test addresses T2, human CD3 protein (human, UniProt P07766 23-126; P04234 22-105).
T2 construct: ELISA coating protein; also called Human CD3D & CD3E Heterodimer Protein
Briefly: ELISA, plate-coated CD3. (In general: An ELISA detects its analyte on a solid surface through an enzyme-linked reagent.)

The target in test [3] is T3, recombinant CD3D&E protein (human CD3-his tag) (human, UniProt P04234 22-105; P07766 23-126, limits assumed).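 Also: humanized antibodies on a Protein A chip, human CD3-his analyte flowed over in serial dilutions for 3 min, dissociation tracked 120–360 s on a Biacore T200.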
T3 construct: Analyte in Biacore; also called CD3D&E-His; CD3d&ε-His
Briefly: SPR Biacore, Ab captured on Protein A. (In general: In SPR one partner is held on a chip, and binding of the other changes the refractive index at the surface.)

Residue numbers refer to the chain shown, from its start.
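For EC50 in this document: binding to plate-immobilized human CD3 protein, bound antibody detected with peroxidase-labelled anti-human IgG and TMB, read as absorbance at 450 nm.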

T3 sequence (P04234 22-105 limits assumed, chain 1 of 2): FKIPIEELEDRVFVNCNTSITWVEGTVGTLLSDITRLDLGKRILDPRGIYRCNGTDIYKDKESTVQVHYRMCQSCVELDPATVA
T3 sequence (P07766 23-126 limits assumed, chain 2 of 2): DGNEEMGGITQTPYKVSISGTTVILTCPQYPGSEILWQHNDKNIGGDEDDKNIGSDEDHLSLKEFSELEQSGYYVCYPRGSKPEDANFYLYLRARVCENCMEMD
T1 sequence (P07766 23-207, chain 1 of 3): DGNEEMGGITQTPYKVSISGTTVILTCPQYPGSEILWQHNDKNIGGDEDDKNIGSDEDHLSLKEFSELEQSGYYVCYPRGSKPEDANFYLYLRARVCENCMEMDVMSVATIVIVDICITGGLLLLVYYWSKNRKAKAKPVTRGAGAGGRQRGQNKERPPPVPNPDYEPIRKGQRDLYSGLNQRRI
T1 sequence (P04234 22-171, chain 2 of 3): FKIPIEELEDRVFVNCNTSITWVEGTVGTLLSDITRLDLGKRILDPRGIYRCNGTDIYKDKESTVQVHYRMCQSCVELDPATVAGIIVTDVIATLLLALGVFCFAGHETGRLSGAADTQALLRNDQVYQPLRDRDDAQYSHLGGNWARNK
T1 sequence (P09693 23-182, chain 3 of 3): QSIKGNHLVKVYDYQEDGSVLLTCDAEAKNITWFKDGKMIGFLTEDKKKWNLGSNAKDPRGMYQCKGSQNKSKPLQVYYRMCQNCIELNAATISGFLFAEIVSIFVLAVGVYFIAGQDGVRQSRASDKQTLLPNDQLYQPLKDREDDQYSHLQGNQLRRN
T2 sequence (P07766 23-126 limits assumed, chain 1 of 2): as the sequence (P07766 23-126 limits assumed, chain 2 of 2) above
T2 sequence (P04234 22-105 limits assumed, chain 2 of 2): as the sequence (P04234 22-105 limits assumed, chain 1 of 2) above

B1: Hu153A6B1-14 (antibody, V domains shown)
VH: EVQLQESGPGLVKPSETLSLTCTVSGGSISSYNIHWVRQPPGKGLEWIGRIRYNGDTSYNSALKSRVTISRDTSKNQFSLKLSSVTAADTAVYYCARGPYGGSREPLFDYWGQGTMVTVSS
VL: DIQMTQSPSSLSASVGDRVTITCKTSQNINKYLNWFQQKPGKAPKLLIYTTNNLQTGIPSRFSGSGSGTDFTLTISSLQPEDFATYFCLQHGSGYTFGQGTKLEIK
notes: humanized mAb
For orientation: EC50 means the concentration needed to bring the measured effect to its halfway point. A high value points to lower potency in that assay. What is called Kd is the concentration at which binding is half-saturated. As a reminder, the koff is the rate constant with which the complex falls apart. Broadly, the kon is the rate constant with which the complex forms. On to B1, for which, in test [1], the “% of SP34” value stood at 74.9% and the Emax was found to be 4140. For the same molecule, in test [2], the “CD3-NFAT Activity by CD3 mAb” value is above 50 % SP34. In addition, in the test with human CD3 protein, the EC50 came to 3.06 ng/mL. Also, in test [3], the Kd worked out at 51.7 nM, the koff turned out to be 0.053 s⁻¹ and the kon is 1.02e+06 M⁻¹ s⁻¹.

B2: Hu155A9B1-7 (antibody, V domains shown)
VH: B1 VH with I34V, V37I, I51V, R71V, R104S
VL: B1 VL with T25A, K45R, F87Y, G92N
notes: humanized mAb
With B2, in test [1], the “% of SP34” value turned out to be 22.6% and the Emax was determined as 1140. Moreover, the “CD3-NFAT Activity by CD3 mAb” value in test [2] was at most 50 % SP34. Moreover, in the test with human CD3 protein, a half-maximal effect (EC50) was put at 136 ng/mL. In test [3], the Kd stood at 13.5 nM, the koff came to 0.00547 s⁻¹ and the kon stood at 406000 M⁻¹ s⁻¹.

B3: Hu155A9B1-1 (antibody, V domains shown)
VH: B1 VH with I34V, V37I, I51V, R71V, R104S
VL: B1 VL with T25A, F36Y, K45R, I58V, F87Y, G92N
notes: humanized mAb
B3: in test [1], the “% of SP34” value stood at 14.2% and the Emax amounted to 720. In test [2], the “CD3-NFAT Activity by CD3 mAb” value was at most 50 % SP34. In the test with human CD3 protein, this molecule displayed an EC50 of 428 ng/mL. In test [3], the Kd worked out at 40.4 nM, the koff turned out to be 0.00441 s⁻¹ and the kon was found to be 109000 M⁻¹ s⁻¹.

B4: Hu155A9B1-10 (antibody, V domains shown)
VH: B1 VH with I34V, I48M, I51V, V67L, A96T, R104S
VL: B1 VL with T25A, K45R, F87Y, G92N
notes: humanized mAb
Consider B4, for which, in test [1], the “% of SP34” value amounted to 24% and the Emax was 1380. Moreover, in test [2], the “CD3-NFAT Activity by CD3 mAb” value is at most 50 % SP34. In the test with human CD3 protein, the response was half-maximal at 6.04 ng/mL (EC50). In test [3], the Kd was 80.5 nM, the koff stood at 0.015 s⁻¹ and the kon turned out to be 187000 M⁻¹ s⁻¹.

B5: Hu155A9B1-5 (antibody, V domains shown)
VH: B1 VH with G27F, I34V, I48M, I51V, V67L, F78A, A96T, R104S
VL: B1 VL with T25A, F36Y, K45R, I58V, F87Y, G92N
notes: humanized mAb; also called 155z5
For B5, in test [1], the “% of SP34” value stood at 79.9% and the Emax came out at 4050. The “CD3-NFAT Activity by CD3 mAb” value in test [2] was above 50 % SP34. In addition, in the test with human CD3 protein, the EC50 turned out to be 3.27 ng/mL. For the same molecule, in test [3], the Kd was 61.4 nM, the koff is 0.00637 s⁻¹ and the kon was found to be 104000 M⁻¹ s⁻¹.

B6: Hu155A9B1-4 (antibody, V domains shown)
VH: B1 VH with I34V, I48M, I51V, V67L, A96T, R104S
VL: B1 VL with T25A, F36Y, K45R, I58V, F87Y, G92N
notes: humanized mAb
On to B6, for which, in test [1], the “% of SP34” value was 14.8% and the Emax was determined as 752. In test [2], the “CD3-NFAT Activity by CD3 mAb” value is at most 50 % SP34. Further, in the test with human CD3 protein, the EC50 is 16.4 ng/mL. For the same molecule, in test [3], the Kd worked out at 15.8 nM, the koff was determined as 0.00648 s⁻¹ and the kon was determined as 409000 M⁻¹ s⁻¹.

B7: Hu155A9B1-2 (antibody, V domains shown)
VH: B1 VH with I34V, I51V, R104S
VL: B1 VL with T25A, F36Y, K45R, I58V, F87Y, G92N
notes: humanized mAb
In the case of B7, in test [1], the “% of SP34” value stood at 12.9% and the Emax was found to be 656. In test [2], the “CD3-NFAT Activity by CD3 mAb” value is at most 50 % SP34. Also, a half-maximal effect with human CD3 protein (EC50) was put at 26.4 ng/mL. In test [3], the Kd is 15.8 nM, the koff came out at 0.00704 s⁻¹ and the kon came out at 445000 M⁻¹ s⁻¹.

B8: Hu153A6B1-17 (antibody, V domains shown)
VH: B1 VH with G27F, I48M, V67L, F78V, A96T
VL: B1 VL
notes: humanized mAb
In the case of B8, in test [1], the “% of SP34” value came out at 77.2% and the Emax worked out at 4260. Also, the “CD3-NFAT Activity by CD3 mAb” value in test [2] was above 50 % SP34. For the same molecule, in the test with human CD3 protein, it took 2.89 ng/mL to reach a half-maximal effect (EC50). Moreover, in test [3], the Kd was 11.1 nM, the koff came out at 0.00106 s⁻¹ and the kon stood at 95400 M⁻¹ s⁻¹.

B9: Hu153A6B1-16 (antibody, V domains shown)
VH: B1 VH with I48M, V67L, A96T
VL: B1 VL
notes: humanized mAb
For the molecule B9, in test [1], the “% of SP34” value came out at 71.9% and the Emax was 3970. For the same molecule, the “CD3-NFAT Activity by CD3 mAb” value in test [2] was above 50 % SP34. In the test with human CD3 protein, the EC50 turned out to be 3.44 ng/mL. Also, in test [3], the Kd was determined as 61.9 nM, the koff was 0.111 s⁻¹ and the kon turned out to be 1.8e+06 M⁻¹ s⁻¹.

B10: Hu155A9B1-9 (antibody, V domains shown)
VH: B1 VH with I34V, I48M, I51V, V67L, R104S
VL: B1 VL with T25A, K45R, F87Y, G92N
notes: humanized mAb
In the case of B10, in test [1], the “% of SP34” value turned out to be 34.9% and the Emax was found to be 1770. In test [2], the “CD3-NFAT Activity by CD3 mAb” value was at most 50 % SP34. Also, a half-maximal response in the test with human CD3 protein (EC50) required 6.28 ng/mL. Besides, in test [3], the Kd was determined as 55 nM, the koff is 0.0155 s⁻¹ and the kon was determined as 282000 M⁻¹ s⁻¹.

B11: Hu155A9B1-11 (antibody, V domains shown)
VH: B1 VH with G27F, I34V, I48M, I51V, V67L, F78A, A96T, R104S
VL: B1 VL with T25A, K45R, F87Y, G92N
notes: humanized mAb
For the molecule B11, in test [1], the “% of SP34” value was determined as 78.4% and the Emax turned out to be 4500. For the same molecule, in test [2], the “CD3-NFAT Activity by CD3 mAb” value was above 50 % SP34. This molecule yielded an EC50 with human CD3 protein of 3.2 ng/mL. In addition, in test [3], the Kd was determined as 44.1 nM, the koff came to 0.00306 s⁻¹ and the kon came out at 69300 M⁻¹ s⁻¹.

B12: Hu153A6B1-15 (antibody, V domains shown)
VH: B1 VH with I48M, V67L
VL: B1 VL
notes: humanized mAb
On to B12, for which, in test [1], the “% of SP34” value turned out to be 75.2% and the Emax turned out to be 4150. For the same molecule, the “CD3-NFAT Activity by CD3 mAb” value in test [2] was above 50 % SP34. In the test with human CD3 protein, this molecule registered an EC50 of 3.03 ng/mL. For the same molecule, in test [3], the Kd stood at 76.2 nM, the koff was 0.0151 s⁻¹ and the kon stood at 198000 M⁻¹ s⁻¹.

B13: Hu153A6B1-18 (antibody, V domains shown)
VH: B1 VH with G27F, I29L, S30T, I48M, V67L, F78V, A96T
VL: B1 VL
notes: humanized mAb
As to B13, in test [1], the “% of SP34” value was found to be 88.8% and the Emax came to 4900. Moreover, the “CD3-NFAT Activity by CD3 mAb” value in test [2] is above 50 % SP34. The molecule also came in with an EC50 in the test with human CD3 protein of 2.82 ng/mL. In test [3], the Kd was determined as 12.5 nM, the koff worked out at 0.00107 s⁻¹ and the kon is 85400 M⁻¹ s⁻¹.

B14: Hu155A9B1-8 (antibody, V domains shown)
VH: B1 VH with I34V, I51V, R104S
VL: B1 VL with T25A, K45R, F87Y, G92N
notes: humanized mAb; also called 155z8
On to B14, for which, in test [1], the “% of SP34” value came out at 26.2% and the Emax was 1330. In addition, in test [2], the “CD3-NFAT Activity by CD3 mAb” value is at most 50 % SP34. This molecule had an EC50 in the test with human CD3 protein of 5.84 ng/mL. Moreover, in test [3], the Kd amounted to 70.2 nM, the koff was determined as 0.0159 s⁻¹ and the kon turned out to be 226000 M⁻¹ s⁻¹.

B15: Hu155A9B1-12 (antibody, V domains shown)
VH: B1 VH with G27F, I29L, S30T, I34V, I48M, I51V, V67L, F78A, A96T, R104S
VL: B1 VL with T25A, K45R, F87Y, G92N
notes: humanized mAb
Consider B15, for which, in test [1], the “% of SP34” value is 72.4% and the Emax is 4160. Further, the “CD3-NFAT Activity by CD3 mAb” value in test [2] was above 50 % SP34. Also, it took 3.35 ng/mL to reach a half-maximal effect in the test with human CD3 protein (EC50). Further, in test [3], the Kd was 51.2 nM, the koff is 0.00286 s⁻¹ and the kon worked out at 55900 M⁻¹ s⁻¹.

Values taken from patent publication US20240417469A1 (CONCEPT TO MEDICINE BIOTECH, published 2024).
